Test system: MS2 coat protein
Assay: apparent KD of MS2 coat protein; designed switch direction (-1 OFF switch, 1 ON switch): 1; higher = weaker reporter binding
Method in brief: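 SNAP-549-labelled MS2 coat protein was titrated, doubling from 0.7 or 1.5 nM to 3 µM, over designed RNA switches transcribed on Illumina chips by stalled E. coli RNA polymerase. Runs were done without input, with 200 uM small-molecule ligand, or with an oligonucleotide input. Apparent KD is the per-design median over clusters of curve-fitted normalised fluorescence.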

[1] = input ligand: microRNA oligo, concentration not stated
[2] = Eterna round: R95, input ligand: microRNA oligo, concentration not stated
[3] = Eterna round: R95, input ligand: FMN 200 uM
[4] = Eterna round: R95, input ligand: none

Sequence | apparent KD of MS2 coat protein (input ligand: FMN 200 uM) [nM] | apparent KD of MS2 coat protein [1] [nM] | apparent KD of MS2 coat protein (input ligand: none) [nM] | apparent KD of MS2 coat protein [2] [nM] | apparent KD of MS2 coat protein [3] [nM] | apparent KD of MS2 coat protein [4] [nM]
CCCGUCUACAGAAAGGUAGAUGGGAAUGUACAUGAGGAUCACCCAUGUUAAUAUGAGUUUGUUGAUAAUUAUGAAUU [Modxample 50 - Jieux - Sensor for bsa-mir-208a] (Eterna round: R96, puzzle: Sensor for hsa-mir-208a) | 19.7 | 18.9 | 24.4 | – | – | –
CAGCGCUGUCGAGAGGAUAUGCGGUGAUGGACAUGAGGAUCACCCAUGUUAGCGAUAGCAUUACUGUAGAAGGCUCUACAGCUGC [JL-ss2-3.08 ViennaUCT mod] (puzzle: Same State 2) | – | – | – | 24.3 | – | –
CCAAUGUACAAUUUAGAUCUACAUGAGGAUCACCCAUGUACAGAGGAUAUCAGCUCGAAUAGAGCUGAGAAGGCUGAAUUAAUU [SSNG3/3-A1] (Eterna round: R96, puzzle: Same State NG 3) | 88.2 | 153 | 226 | – | – | –
ACCGCGUUUCGCGCCUACAUGAGGAUCACCCAUGUUUGUAGGCAGGAUAUCGUCCGCUCUGCGGGCGAGAAGGGCUGUUGUGGU [salish99_SSNG3_R04_028] (Eterna round: R96, puzzle: Same State NG 3) | 49.3 | 42.9 | 60.8 | – | – | –
GGCUAUCGGCGUACCGAUAGCUGGUAUGUACAUGAGGAUCACCCAUGUCAUGUACAGGCUUGUUGCUCGUCUUAUUG [JL-shm-2.38 JL mod] (puzzle: Sensor for hsa-mir-208a) | – | – | – | 33 | 144 | 165
UUAACAUGAGGAUCACCCAUGUAUAGGGAGUUAGCAAUUUGACAGGAUAUUGAAGAUGUAGAUAGCAAGAAGGGUCGGUAGUCU [JR_SSNG3_Sub003] (Eterna round: R96, puzzle: Same State NG 3) | 39.9 | 41.3 | 45.9 | – | – | –
UUGGUUCUCGUAGGAUAUGUAGGAUAUGCCUACAUGAGGAUCACCCAUGUUCGCAUGGCAGAAGGACAGAAGGACGAUCACCAU [pwkr ssNG2 2FMN + 1F5.17] (Eterna round: R96, puzzle: Same State NG 2) | – | 136 | – | – | – | –
UCUAUUGUGGUAGGAUAUCUAGGAUAUGGGAAGAGCUAAGCUUGGAAGUCACUUCACCCAGAAGGAGAGAAGGACCACACACUU [pwkr ssNG2 2FMN + F9.8] (Eterna round: R96, puzzle: Same State NG 2) | 564 | 121 | 225 | – | – | –
GUGCAACCGUGUGAGGAUAUCGGUGAAUAAACAUGAGGAUCACCCAUGUCCGAAGCUCGGUUCUCCGAGAAGGCGCACAGUUGCA [Same State 2 - Mod of Erisin v.4] (puzzle: Same State 2) | – | – | – | 116 | 23.8 | 159
ACAUGAGGAUCACCCAUGUAUGCUCAGGAAACUGUGCAGCAUGAGGAUAUGGAUCCUAAUUGGAUCCAGAAGGCGUGAAUUAUU [Fiskers NG3ss - 25] (Eterna round: R96, puzzle: Same State NG 3) | 507 | 692 | 2520 | – | – | –
GCCGGACCGGAAGGAUAUGUUCCCGGUGCAGCGGGAGACAUGAGGAUCACCCAUGUACUAUAACGACAGAAGGUCCAACCAGCG [Eternabot solution 21] (Eterna round: R96, puzzle: Same State NG 2) | 18.7 | 16.4 | 22.5 | – | – | –
CGUCCAGCCUGAGCUGGACAAAAGCAUGUACAUGAGGAUCACCCAUGUUCAUGUACAAGCUUUUUGCUCGUCUUAUC [salish99_208a_r3_055] (puzzle: Sensor for hsa-mir-208a) | – | – | – | 14.4 | 597 | 587
GCGAAGAGGUAAGGAUAUGCAUGGCGGAGACAUGAGGAUCACCCAUGUUGGAGACGAAAUCUAGGGUAGAAGGUACCAGGAAGC [AK SSNG2-V2-12] (Eterna round: R96, puzzle: Same State NG 2) | 61.9 | 52.6 | 72.1 | – | – | –
AUUUAACAAGCUUUUUGCUCGUCUUAUAAACAUGAGGAUCACCCAUGUAAUAGCGUGAGAGUAAAUAUUUAAAUAAU [JMF 93] (puzzle: Sensor for hsa-mir-208a) | – | – | – | 48.3 | 14.5 | 11.1
UACAAUCUAUCUCAGGAUAUCAUGUCAAAGACAUGAGGAUCACCCAUGUACCAGGAAACUGGUUAUGAGAAGGGAGAUAGAUUGA [Mat - Same State 2 - Mod - D25] (puzzle: Same State 2) | – | – | – | 59.1 | 119 | 390
GCACUCCUAGGAGCUGCGACAUGAGGAUCACCCAUGUAAUCACAGGAUAUGCAAUUCUGAAUUUUGCAGAAGGGUGAUAGGAAA [Zausorbi] (Eterna round: R96, puzzle: Same State NG 3) | 413 | 270 | 263 | – | – | –
GUACAGAUUAUAGGAUAUCACGUCGUUUAGACGUGAGAAGGAUAAUCACACAUGAAUAUUAAUACAUGAGGAUCACCCAUGUAC [SSNG1/17-A3] (Eterna round: R96, puzzle: Same State NG 1) | 18.4 | 17.5 | 18.5 | – | – | –
UCUUGGUUUUUGCUCGUUUUUUGUGUUGAACAUGAGGAUCACCCAUGUAUUGUACGAUCCAAUUUAAUAAUGGUCCG [JMF 60] (puzzle: Sensor for hsa-mir-208a) | – | – | – | 33.6 | 42.6 | 50.2
UCGAGCGUACUUGCAGACAUGAGGAUCACCCAUGUAAAUGGGAAGGAUAUGGUACCGUUUCGGUACCAGAAGGUCCUAAGUGUU [salish99_SSNG3_r04_303] (Eterna round: R96, puzzle: Same State NG 3) | 616 | 146 | 493 | – | – | –
UGGCUCAGACGAGGAUAUAUGCGAUCACAUGAGGAUCACCCAUGUCUCGAGCUUCGGCUCGAGGCAUAGAAGGUGUCUGAGCCA [SSNG2/4-C2] (Eterna round: R96, puzzle: Same State NG 2) | 40.9 | 83.1 | 145 | – | – | –
UACAAUCUAUCUCAGGAUAUCAUGUCAAAGACAUGAGGAUCACCCAUGUACCAGGAAACUGGUUAUGAGAAGGGAGAUAGAUUGU [Mat - Same State 2 - Mod - D24] (puzzle: Same State 2) | – | – | – | 35.4 | 136 | 77.9
GCGAGCGUACUUGCUACAUGAGGAUCACCCAUGUUUUAUGGACAGGAUAUGGUACCGUUUCGGUACCAGAAGGGUCCACAUGUA [JL SSNG3 3.84] (Eterna round: R96, puzzle: Same State NG 3) | 130 | 579 | 453 | – | – | –
CGUUCAUACUCAGGACGGAGAGUAGAGGAACAUGAGGAUCACCCAUGUAUGAGCUUUUUGCUCGUCAUUAACAGUAG [JR_SHM208a_Sub012] (puzzle: Sensor for hsa-mir-208a) | – | – | – | 43.4 | 61.8 | 81.2
UGUCCAGCCUGAGCUGGACAAAAGCAUGUACAUGAGGAUCACCCAUGUUCAUGUACAAGCUUUUUGCUCGUCUUAGC [salish99_208a_r3_067] (puzzle: Sensor for hsa-mir-208a) | – | – | – | 13.6 | 624 | 547
GUGGUUCUCGUAGGAUAUGUAGGAUAUGCCUACAUGAGGAUCACCCAUGUUCGCAUGGCAGAAGGACAGAAGGACGAUCACUAA [pwkr ssNG2 2FMN + 1F5.15] (Eterna round: R96, puzzle: Same State NG 2) | 159 | 11.7 | 94.2 | – | – | –
AAAACAUGACGAGGAUAUGGAACAUGAGGAUCACCCAUGUAUGUUCCAUAACGCGAAUGACGAAUCCAGAAGGCGUCGUGAAAA [Mat - Same State NG 2 - JL mod - D27] (Eterna round: R96, puzzle: Same State NG 2) | 25.1 | 181 | 272 | – | – | –
AGAGGAGGCGCAGGAUAUACGACGGAGGACGAGGUAGAAGGGUGCAUGCGAUAACAUGAGGAUCACCCAUGUACCGCGCGACGA [AK SSNG1-V2-17.1] (Eterna round: R96, puzzle: Same State NG 1) | 122 | 24.9 | 45.6 | – | – | –
ACAUGAGACUCAGGAUAUAUUGUACCUACAUGUGACAUGAGGAUCACCCAUGUGGUAAGUAUGACAUAGAAGGGAGAGAUAUGU [Equivalance 86 - Jieux - Same State NG 2] (Eterna round: R96, puzzle: Same State NG 2) | 37.3 | 40.5 | 59.9 | – | – | –
UAGAGAGGAAGCGAGGAUAUCGUGGGAGGGACAUGAGGAUCACCCAUGUAGGAUGUUGAGAGGAACGAGAAGGCGCAGGAAAGAA [JR_SS2_Sub075] (puzzle: Same State 2) | – | – | – | 78.1 | 67.1 | 110
ACAUGAGAUAGAGGAUAUGUUGUACCUACAUGUGACAUGAGGAUCACCCAUGUGGUAAGUAUGAUACAGAAGGCUAAGAUAUGU [Equivalance 60 - Jieux - Same State NG 2] (Eterna round: R96, puzzle: Same State NG 2) | 16.5 | 19.1 | 30.1 | – | – | –

— the supplement of paper PMC9170038
